Test results as given in patent publication JP2022028645A.
pKd: −log10 of the molar value.

Key:
Test in all cases: SPR (Biacore T200), TYRP1 ECD-Fc captured by anti-PGLALA antibody, 1:1 Langmuir fit
[1] = target: Mouse TYRP1 extracellular domain (ECD), monomeric fusion to human Fc domain with knob-into-hole and PG LALA modifications and C-terminal Avi-tag (mouse) [IgG part: P01857]
[2] = target: Cynomolgus TYRP1 extracellular domain (ECD), monomeric fusion to human Fc domain with knob-into-hole and PG LALA modifications and C-terminal Avi-tag (cynomolgus monkey) [IgG part: P01857]
[3] = target: Human TYRP1 extracellular domain (ECD), monomeric fusion to human Fc domain with knob-into-hole and PG LALA modifications and C-terminal Avi-tag (human) [IgG part: P01857]

- pKd [1]: 9.51
- pKd [2]: 9.92
- pKd [3]: 10.05
Substance: 親TA99抗体 (parental TYRP1 antibody TA99)
